Assay results published in patent publication US20110239311A1, “Agonists of NR2F6 For Immunosupression” (Medizinische Universitat Innsbruck, priority 2008, published 2011).
Where a chain is given by its changes, count along the chain named. In names and notes the source's numbering stands.

T1: NR2F6 (Homo sapiens, UniProt P10588)
T1 construct: expressed in transfected cells; host or cells: Jurkat T cells (transient electroporation)
T1 sequence (P10588 1-404): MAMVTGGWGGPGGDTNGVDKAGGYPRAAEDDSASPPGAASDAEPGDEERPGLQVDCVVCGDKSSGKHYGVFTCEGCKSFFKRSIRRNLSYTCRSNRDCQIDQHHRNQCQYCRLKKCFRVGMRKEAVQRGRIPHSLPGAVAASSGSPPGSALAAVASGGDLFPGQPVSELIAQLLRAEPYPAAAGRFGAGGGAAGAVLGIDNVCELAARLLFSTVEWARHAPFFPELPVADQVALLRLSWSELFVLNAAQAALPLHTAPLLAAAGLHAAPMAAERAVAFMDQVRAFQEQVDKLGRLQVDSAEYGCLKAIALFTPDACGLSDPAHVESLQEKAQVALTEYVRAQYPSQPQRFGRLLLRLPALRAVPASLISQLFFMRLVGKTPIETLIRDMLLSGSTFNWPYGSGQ

T2: NR2F6-ER (UniProt P10588+P19785, G525R)
T2 construct: expressed in transfected cells; host or cells: Jurkat T cells (transient electroporation)
T2 sequence (P10588+P19785 with tags, fused parts or gaps P19785:G525R): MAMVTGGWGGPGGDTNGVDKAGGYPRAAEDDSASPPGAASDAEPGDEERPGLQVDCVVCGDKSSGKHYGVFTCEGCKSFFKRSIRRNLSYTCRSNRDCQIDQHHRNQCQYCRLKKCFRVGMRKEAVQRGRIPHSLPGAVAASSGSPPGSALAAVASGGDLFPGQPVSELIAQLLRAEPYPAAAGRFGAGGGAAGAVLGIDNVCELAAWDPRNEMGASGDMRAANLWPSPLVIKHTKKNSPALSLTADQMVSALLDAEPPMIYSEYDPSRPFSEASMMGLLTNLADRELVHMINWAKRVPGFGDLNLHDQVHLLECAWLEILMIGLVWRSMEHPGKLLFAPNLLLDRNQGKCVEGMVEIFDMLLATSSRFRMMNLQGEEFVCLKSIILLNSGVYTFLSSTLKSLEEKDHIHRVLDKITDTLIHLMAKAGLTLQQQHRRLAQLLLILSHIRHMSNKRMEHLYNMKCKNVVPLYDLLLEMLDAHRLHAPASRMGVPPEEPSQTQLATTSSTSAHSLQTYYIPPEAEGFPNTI

B1: NR2F6: recombinant overexpressed nuclear receptor subfamily 2, group F, member 6 (Ear2), SEQ ID NO: 2 (protein, listed as Homo sapiens)
chain: T1 sequence (P10588 1-404)
B2: C112S: C112S zinc finger mutant of NR2F6, defective in DNA binding, SEQ ID NOs: 30 and 31 (protein)
chain: T1 sequence (P10588 1-404) with C111S
modifications: /note=“Description of artificial sequence amino acid sequence of C112S mutated NR2F6”
B3: S83E: S83E mutant of NR2F6, Ser-83 phospho-mimic, DNA-binding deficient, SEQ ID NO: 8 (protein, listed as Homo sapiens)
chain: T1 sequence (P10588 1-404) with S83E
modifications: VARIANT (83)..(83) S83E mutation
B4: NR2F2 wild type: the closest relative of NR2F6, used as control (protein, UniProt P24468 1-414, looked up)
COUP transcription factor 2: MAMVVSTWRDPQDEVPGSQGSQASQAPPVPGPPPGAPHTPQTPGQGGPASTPAQTAAGGQGGPGGPGSDKQQQQQHIECVVCGDKSSGKHYGQFTCEGCKSFFKRSVRRNLSYTCRANRNCPIDQHHRNQCQYCRLKKCLKVGMRREAVQRGRMPPTQPTHGQFALTNGDPLNCHSYLSGYISLLLRAEPYPTSRFGSQCMQPNNIMGIENICELAARMLFSAVEWARNIPFFPDLQITDQVALLRLTWSELFVLNAAQCSMPLHVAPLLAAAGLHASPMSADRVVAFMDHIRIFQEQVEKLKALHVDSAEYSCLKAIVLFTSDACGLSDVAHVESLQEKSQCALEEYVRSQYPNQPTRFGKLLLRLPSLRTVSSSVIEQLFFVRLVGKTPIETLIRDMLLSGSSFNWPYMAIQ
B5: NR2F6-ER: conditionally activated NR2F6 estrogen-receptor ligand binding domain mutant (ERmut-LBD) fusion protein, SEQ ID NO: 10 (protein)
chain: MAMVTGGWGGPGGDTNGVDKAGGYPRAAEDDSASPPGAASDAEPGDEERPGLQVDCVVCGDKSSGKHYGVFTCEGCKSFFKRSIRRNLSYTCRSNRDCQIDQHHRNQCQYCRLKKCFRVGMRKEAVQRGRIPHSLPGAVAASSGSPPGSALAAVASGGDLFPGQPVSELIAQLLRAEPYPAAAGRFGAGGGAAGAVLGIDNVCELAWDPRNEMGASGDMRAANLWPSPLVIKHTKKNSPALSLTADQMVSALLDAEPPMIYSEYDPSRPFSEASMMGLLTNLADRELVHMINWAKRVPGFGDLNLHDQVHLLECAWLEILMIGLVWRSMEHPGKLLFAPNLLLDRNQGKCVEGMVEIFDMLLATSSRFRMMNLQGEEFVCLKSIILLNSGVYTFLSSTLKSLEEKDHIHRVLDKITDTLIHLMAKAGLTLQQQHRRLAQLLLILSHIRHMSNKGMEHLYNMKCKNVVPLYDLLLEMLDAHRLHAPASRMGVPPEEPSQTQLATTSSTSAHSLQTYYIPPEAEGFPNTI
modifications: /note=“Description of artificial sequence amino acid sequence of NR2F6 wild-type Er-LBD fusion mutant”

Tests used:
[1] = tested on: CD4+ T cells; assay: IL-2 secretion of transfected CD4+ T cells upon CD3 plus CD28 stimulation; assay type: cell-based, mouse; settings: vs control transfection
Method: CD4+ T cells were negatively selected by magnetic cell sorting (Miltenyi Biotec). T cell populations were typically 95% CD4+, as determined by staining and flow cytometry. Cells were resuspended in solution from Nucleofactor mouse T cell kit and program X-01 following the Amaxa guidelines for cell-line transfection. In brief, up to 1×10^7 cells were mixed with 1.5 μM of synthetic ON-TARGETpIus siRNA predesigned by Dharmacon (i.e., order code 045088) as pool (see SEQ ID NOs: 19 to 26) or ON-TARGETplussiCONTROL nontargeting pool were nucleofected with the Amaxy Nucleofactor apparatus and immediately transferred into 37° C. prewarmed culture medium and cultured for a minimum of 24 hours before experimental analysis; see also FIG. 16.
Analysis of cytokine production: Cytokine production of mouse CD4^+ T cells after Th17 polarizing stimulation was assessed via the BioPlex technology (BioRad) according to manufacturer's instructions.

[2] = tested on: NFAT/AP-1 promoter:luciferase reporter; assay: NFAT/AP-1 promoter:luciferase reporter transrepression assay in Jurkat cells; assay type: cell-based, human; settings: transient overexpression in Jurkat cells
Method: (§1) Jurkat-TAg cells (a kind gift from Dr. Crabtree, Stanford University, CA) have been transiently transfected with circular plasmid DNA by electroporation (BTX-T820 ElectroSquarePorator™, ITC, Biotech, Heidelberg, Germany), using predetermined optimal conditions (1×10^7 cells in 200 μl RPMI medium at 450 V/cm and 5 pulses of 99 msec), yielding approx. 40% transfection efficiency. NF-AT:AP-1 reporter gene expression was measured in transient cotransfection assays using 10 μg pSRα-CD28, 15 μg of the GFP or Nr2f6 expression vectors and 15 μg of the promoter firefly luciferase reporter (RLU1). The latter were a NF-AT:AP-1 composite site reporter (Macian et al., 2001), a NF-AT reporter construct containing three tandem copies of the NF-AT minimal consensus sequence and the proximal IL-17A promoter reporter (Liu et al., 2004). The proximal IL-17A promoter is also described elsewhere herein. After 21 h cells were stimulated with solid-phase CD3 and CD28 agonistic antibodies for 16 h or left unstimulated, as indicated and the firefly luciferase was measured employing the luciferase detection kit (Promega, Madison, Wis.) and the βJet-Luminometer (WALLAC, Turku, Finland).

[3] = tested on: IL-17A promoter:luciferase reporter; assay: IL-17A promoter:luciferase reporter transrepression assay in Jurkat cells; assay type: cell-based, human; settings: transient overexpression in Jurkat cells
Method: as §1

[4] = target: T1, NR2F6; assay: RARE containing renilla luciferase reporter assay in NR2F6 transfected Jurkat T cells; assay type: cell-based; settings: CD3/CD28 with or without RA 20 microM
Method: Jurkat T cells were maintained in RPMI medium supplemented with 10% FCS (Life Technologies, Inc.). Transient transfection of cells was performed by electroporation in a BTX-T820 ElectroSquarePorator (ITC, Biotech, Heidelberg, Germany) apparatus using predetermined optimal conditions: 2×10^7 cells at 450 V/cm and 5 pulses of 99 msec. Optimix medium (Equibio, Kent, UK) was used for studies of promoter reporter gene expression. Reporter gene expression was measured in co-transfection assays using 15 μg of the NR2F6 wild type or mutant expression vectors and 5 μg of the RARE containing renilla luciferase reporter vector pTK-Renilla-Luc (Promega, Medison, Wi). After 24 hrs cells were stimulated with solid phase CD3 and CD28 antibodies with or without retinoic acid (RA at 20 microM) for 16 hrs, as indicated.

[5] = target: T2, NR2F6-ER; assay: NF-AT/AP-1 promoter luciferase reporter assay in NR2F6-ER transfected Jurkat T cells; assay type: cell-based, human; settings: transiently transfected Jurkat T cells
Method: Jurkat T cells were maintained in RPMI medium supplemented with 10% FCS (Life Technologies, Inc.). Transient transfection of cells was performed by electroporation in a BTX-T820 ElectroSquarePorator (ITC, Biotech, Heidelberg, Germany) apparatus using predetermined optimal conditions: 2×10^7 cells at 450 V/cm and 5 pulses of 99 msec. Optimix medium (Equibio, Kent, UK) was used for studies of promoter reporter gene expression. Reporter gene expression was measured in co-transfection assays using 15 μg of the NR2F6 wild-type or mutant expression vectors and 15 μg of the AP-1/NF-AT promoter firefly luciferase reporter (RLU1). For normalization 0.3 μg of the renilla luciferase reporter vector pTK-Renilla-Luc (Promega, Medison, Wi) (RLU2) has been used.

Molecule	IL-2 cytokine secretion [1]	trans-repression of CD3/CD28 activation-induced NFAT/AP-1 promoter:luciferase reporter [2]	trans-repression of CD3/CD28 activation-induced IL-17A promoter:luciferase reporter [3]	transcriptional repressor activity (RARE reporter) [4]	CD3/CD28-induced NF-AT/AP-1 composite element-dependent reporter [5]
B1	significantly suppresses IL-2 secretion responses	robust and reproducible trans-repression	robust and reproducible trans-repression	–	–
B2	–	lost its transcriptional repressor activity	lost its transcriptional repressor activity	lost its transcriptional repressor activity	–
B3	–	not able to suppress	not able to suppress	lost its transcriptional repressor activity	–
B4	–	not able to suppress	not able to suppress	–	–
B5	–	–	–	–	repressed
